Experimental data: publication PMC3098940 (ACS chemical biology, 2011)

Target: the molecule itself
Assay: SEC

B1: phosphorylated Stat3β (residues 127-722), wildtype (domain or fragment, murine, UniProt P42227-2 127-722, looked up)
chain: GQANHPTAAVVTEKQQMLEQHLQDVRKRVQDLEQKMKVVENLQDDFDFNYKTLKSQGDMQDLNGNNQSVTRQKMQQLEQMLTALDQMRRSIVSELAGLLSAMEYVQKTLTDEELADWKRRQQIACIGGPPNICLDRLENWITSLAESQLQTRQQIKKLEELQQKVSYKGDPIVQHRPMLEERIVELFRNLMKSAFVVERQPCMPMHPDRPLVIKTGVQFTTKVRLLVKFPELNYQLKIKVCIDKDSGDVAALRGSRKFNILGTNTKVMNMEESNNGSLSAEFKHLTLREQRCGNGGRANCDASLIVTEELHLITFETEVYHQGLKIDLETHSLPVVVISNICQMPNAWASILWYNMLTNNPKNVNFFTKPPIGTWDQVAEVLSWQFSSTTKRGLSIEQLTTLAEKLLGPGVNYSGCQITWAKFCKENMAGKGFSFWVWLDNIIDLVKKYILALWNEGYIMGFISKERERAILSTKPPGTFLLRFSESSKEGGVTFTWVEKDISGKTQIQSVEPYTKQQLNNMSFAEIIMGYKIMDATNILVSPLVYLYPDIPKEEAFGKYCRPESQEHPEADPGSAAPYLKTKFICVTPFIDAVWK
modifications: phosphotyrosine at 705
stoichiometry N: 2
